{"source": "patent US20190351003A1", "about": "“METHODS FOR INHIBITING NONALCOHOLIC STEATOHEPATITIS, NONALCOHOLIC FATTY LIVER DISEASE, AND/OR DE NOVO LIPOGENESIS” (The Regents of the University of California, priority 2017, published 2019)", "origin": "cited, not measured here", "target": "T1, caspase-2 (Homo sapiens, UniProt P42575)", "T1 sequence (P42575 1-452)": "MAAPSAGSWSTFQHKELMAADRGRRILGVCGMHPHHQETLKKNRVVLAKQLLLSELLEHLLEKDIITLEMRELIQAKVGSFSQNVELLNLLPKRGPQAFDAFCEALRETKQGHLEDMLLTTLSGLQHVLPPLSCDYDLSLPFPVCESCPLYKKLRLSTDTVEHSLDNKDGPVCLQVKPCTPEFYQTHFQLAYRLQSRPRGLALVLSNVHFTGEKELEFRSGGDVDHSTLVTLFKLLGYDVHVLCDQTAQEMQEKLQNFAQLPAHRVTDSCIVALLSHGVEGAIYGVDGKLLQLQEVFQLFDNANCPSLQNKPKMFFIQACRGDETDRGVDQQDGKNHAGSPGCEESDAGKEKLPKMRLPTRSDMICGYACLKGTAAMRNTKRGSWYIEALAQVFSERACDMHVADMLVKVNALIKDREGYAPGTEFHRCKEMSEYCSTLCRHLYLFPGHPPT", "settings": "cell-permeable peptide; fluoromethylketone derivative; cited from earlier work", "note": "Where no end group is shown, it is not given here. The star is where a group is joined. CH2F = FC*"}
{"substance": "VDVAD (VDVAD-CH2F) [available as a fluoromethylketone derivative]", "values": [{"measurement": "activity of caspase-2", "value": "irreversibly inhibits"}]}
